Substrate in this series: NCCCCNCCCN
Nature of the series: Inhibition of deoxyhypusine synthase ([3H]deoxyhypusine formation from [3H]spermidine), IC50/Ki. Type of series: biochemical, rat. The following applies: pH 9.3; 37.0 °C.

Description: A typical assay mixture included 0.2M glycine, 1 mM dithiothreitol, 0.5 mM NAD^+, 2.4 micromolar (μM) [1,8-^3 H] spermidine, 1 μM ec-eIF-5A(Lys), 25 micrograms (μg) bovine serum albumin, and 3-15 units of enzyme in a total volume of 20 microliters (μl). Incubations were carried out at pH 9.3 and 37° C. for 1 hour. […] Percent inhibition was plotted versus log inhibitor concentration in order to obtain graphic estimates of IC50 values, i.e., the concentrations inhibiting [^3 H]deoxyhypusine production by 50%. The IC50 values reported in the tables were calculated by fitting the data points to equation 1 where x=% inhibition and I is the inhibitor concentration. […] The nature of the inhibition was determined by plotting reciprocal velocities of [^3 H]deoxyhypusine production against reciprocals of [^3 H]spermidine concentrations at a constant fixed level of ec-eIF-5A(Lys) (1 μM) and at set inhibitor concentrations. […] Estimates of Ki values were made by fitting the data to equation 2; wherein v is the velocity of the reaction, V is the maximum velocity, S is the substrate concentration, Km is Michaeli's constant, Ki is the inhibition constant, and I is the inhibitor concentration.

B1: deoxyhypusine synthase from rat testis (Rattus norvegicus) (protein)
chain: MEGTPSGAAPSSALAAVLKHSSALPPESAQVQGYDFNRGVDYHALLEAYGTTGFQATNFGRAVQQVNAMIEKKLEPLAVDEDHHEDLTQSRRPLTGCTIFLGYTSNLISSGIRETIRYLVQHNMVDVLVTTAGGVEEDLIKCLAPTYLGEFSLRGKELRENGINRIGNLLVPNDNYCKFEDWLMPILDQMVQEQNTEGVKWTPSKMISRLGKEINNPESVYYWAHKNHIPVLSPALTDGSLGDMIFFHSYKNPGLVLDIVEDLRLINMQAIFAKRTGMIILGGGVVKHHIANANLMRNGADYAVYINTAQEFDGSDSGARPDEAVSWGKIRMDAQPVKVYADASLVFPLLVAETFAQKADAFRAEKNED
notes: as catalyzed by deoxyhypusine synthase from rat testis; from tissue; host or cells: rat testis
With B1, the Km (in general, the concentration of substrate that gives half-maximal velocity) is 4.5 ± 0.7 µM.
